Legend:
[1] = biological target: FVIII-2191-2220 presented on HLA-DR1 by irradiated DR1-PBMCs (human); assay: cell-based or functional assay
[2] = biological target: PE-labeled DR1 tetramers loaded with FVIII-2191-2220 (human) (UniProt P01903); assay: flow cytometry, PE-labeled DR1 tetramer staining of peptide-expanded transduced T effectors
[3] = biological target: PE-labeled DR1 tetramers loaded with FVIII-2191-2220 (human) (UniProt P01903); assay: flow cytometry, DR1 tetramer staining of transduced naïve CD4 T cells
[4] = biological target: PE-labeled DR1 tetramers loaded with FVIII-2191-2220 (human) (UniProt P01903); assay: flow cytometry, DR1 tetramer staining of transduced CD4 T cells

B1: FVIII C2-specific human T cell receptor (TCR17195) (TCR)
chain: RQVARVIVFLTLSTLSLAKTTQPISMDSYEGQEVNITCSHNNIATNDYITWYQQFPSQGPRFIIQGYKTKVTNEVASLFIPADRKSSTLSLPRVSLSDTAVYYCLVGDAPNSGNTPLVFGKGTRLSVIANIQNPDPAVYQLRDSKSSDKSVCLFTDFDSQTNVSQSKDSDVYITDKTVLDMRSMDFKSNSAVAWSNKSDFACANAFNNSIIPEDTFFPSPESSCDVKLVEKSFETDTNLNFQNLSVIGFRILLLKVAGFNLLMTLRLWSSRAKRGSGATNFSLLKQAGDVEENPGPMLLLLLLLGPGSGLGAVVSQHPSRVICKSGTSVKIECRSLDFQATTMFWYRQFPKKSLMLMATSNEGSKATYEQGVEKDKFLINHASLTLSTLTVTSAQPEDSSFYICSAHTRANYGYTFGSGTRLTVVEDLNKVFPPEVAVFEPSEAEISHTQKATLVCLATGFFPDHVELSWWVNGKEVHSGVSTDPQPLKEQPALNDSRYCLSSRLRVSATFWQNPRNHFRCQVQFYGLSENDEWTQDRAKPVTQIVSAEAWGRADCGFTSVSYQQGVLSATILYEILLGKATLYAVLVSALVLMAMVKRKDF
expansion of GFP cells against culture with pOVA [1]: 50 fold
proliferation of GFP cells (dye dilution, 4 days) [1]: 100%
proportion of GFP cells after culture with FVIII-2191-2220 [1]: 61 to 81%
percent tetramer+ [2]: 24%
percent tetramer+ of the total CD4 population [3]: 0.2%
percent tetramer+ of the transduced cells [3]: < 5%
fold tetramer staining intensity over non-specific tetramer staining [4]: > 10 fold

Source: patent US20190203174A1
